Experimental findings from patent US20220341931A1 are described below.

The target of this assay is Influenza A [A/Hawaii/70/2019 (H1N1)pdm09-like virus] Hemagglutinin (HA), His-Tag (Native Antigen Co (Influenza A [A/Hawaii/70/2019 (H1N1)pdm09-like virus])).

For “SARS-CoV-2 (2019-nCoV) Nucleocapsid Antibody, Rabbit MAb (Sino Biological Cat: 40143-R019)”, the barcode sequence counts (FLU A) turned out to be 2000 counts.
